# From publication PMC6479807
# Key:
# [1] = target: PsSYM10 extracellular domain (PsSYM10-ECD) (Pisum sativum (pea))
# [2] = target: PsSYM10 extracellular domain (PsSYM10-ECD) (Pisum sativum (pea)); remark: listed apart in the source
# [3] = target: PsSYM10 extracellular domain (PsSYM10-ECD) (Pisum sativum (pea)); remark: listed apart in the source
substance,measurement,setting,value
"PsK1 extracellular domain (PsK1-ECD), wild type (domain or fragment)","hypersensitive response (cell death) in N. benthamiana leaves 48–72 h after infiltration, on co-production of full-length PsSYM10-3xFLAG and PsK1-6xHIS; percent of leaves with HR",[1],90%
PsK1-ECD with P169S replacement in LysM3 (as in the k1-2 mutant line) (domain or fragment),hypersensitive response in N. benthamiana leaves on co-production of full-length PsSYM10 and full-length PsK1-6xHIS with P169→S; percent of leaves with HR,[2],53%
PsK1-ECD with S59F replacement in LysM1 (as in the k1-3 mutant line) (domain or fragment),hypersensitive response in N. benthamiana leaves on co-production of full-length PsSYM10 and full-length PsK1-6xHIS with the LysM1 replacement (k1-3); percent of leaves with HR,[3],93%
